Experimental data taken from the supplement of paper PMC10065799, “High-throughput profiling of sequence recognition by tyrosine kinases and SH2 domains using bacterial peptide display” (eLife, 2023).

Columns and labels:
[1] = molecular target: c-Src SH2; assay: SH2 binding enrichment of the phosphorylated peptide, bacterial display (enrichment ratio); higher = better substrate or ligand; peptides without Tyr show the background
[2] = molecular target: Grb2 SH2 (UniProt P62993); assay: as above
[3] = molecular target: SHP2-C SH2; assay: as above
[4] = system: AncSZ; assay: phosphorylation enrichment, bacterial display (enrichment ratio); higher = better substrate or ligand; peptides without Tyr show the background
[5] = molecular target: Jak2 (UniProt O60674); assay: as above
Chain of Jak2 (O60674 whole entry, looked up): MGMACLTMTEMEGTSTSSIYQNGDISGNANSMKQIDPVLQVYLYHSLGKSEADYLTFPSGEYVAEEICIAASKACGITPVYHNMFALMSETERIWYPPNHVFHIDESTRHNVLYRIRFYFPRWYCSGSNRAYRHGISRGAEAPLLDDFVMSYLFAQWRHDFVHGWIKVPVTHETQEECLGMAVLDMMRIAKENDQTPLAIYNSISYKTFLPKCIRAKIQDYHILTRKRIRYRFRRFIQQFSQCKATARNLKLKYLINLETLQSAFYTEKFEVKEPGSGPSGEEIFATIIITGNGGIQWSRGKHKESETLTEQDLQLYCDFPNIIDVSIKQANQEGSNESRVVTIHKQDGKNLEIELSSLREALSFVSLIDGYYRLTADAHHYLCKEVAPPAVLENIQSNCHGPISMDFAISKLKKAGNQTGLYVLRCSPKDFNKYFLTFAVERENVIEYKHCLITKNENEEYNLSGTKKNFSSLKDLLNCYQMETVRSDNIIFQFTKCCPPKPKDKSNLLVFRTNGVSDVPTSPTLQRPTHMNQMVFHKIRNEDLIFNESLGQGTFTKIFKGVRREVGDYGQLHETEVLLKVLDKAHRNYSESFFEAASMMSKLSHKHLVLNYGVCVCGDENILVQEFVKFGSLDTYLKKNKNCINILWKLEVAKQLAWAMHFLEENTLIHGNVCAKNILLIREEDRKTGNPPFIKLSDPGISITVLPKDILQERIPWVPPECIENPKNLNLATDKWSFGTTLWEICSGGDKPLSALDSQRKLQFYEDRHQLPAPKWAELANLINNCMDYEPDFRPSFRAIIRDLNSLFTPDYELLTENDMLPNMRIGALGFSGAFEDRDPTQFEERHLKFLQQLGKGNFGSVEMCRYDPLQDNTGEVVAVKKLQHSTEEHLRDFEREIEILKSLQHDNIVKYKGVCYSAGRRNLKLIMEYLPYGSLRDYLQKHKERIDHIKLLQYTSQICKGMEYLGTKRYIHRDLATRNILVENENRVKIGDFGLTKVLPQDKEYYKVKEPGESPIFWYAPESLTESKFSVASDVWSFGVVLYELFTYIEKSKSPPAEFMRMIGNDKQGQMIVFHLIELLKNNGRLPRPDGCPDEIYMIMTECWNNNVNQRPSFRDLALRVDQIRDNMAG

[6] = molecular target: Fes (UniProt P07332); assay: as above
Chain of Fes (P07332 whole entry, looked up): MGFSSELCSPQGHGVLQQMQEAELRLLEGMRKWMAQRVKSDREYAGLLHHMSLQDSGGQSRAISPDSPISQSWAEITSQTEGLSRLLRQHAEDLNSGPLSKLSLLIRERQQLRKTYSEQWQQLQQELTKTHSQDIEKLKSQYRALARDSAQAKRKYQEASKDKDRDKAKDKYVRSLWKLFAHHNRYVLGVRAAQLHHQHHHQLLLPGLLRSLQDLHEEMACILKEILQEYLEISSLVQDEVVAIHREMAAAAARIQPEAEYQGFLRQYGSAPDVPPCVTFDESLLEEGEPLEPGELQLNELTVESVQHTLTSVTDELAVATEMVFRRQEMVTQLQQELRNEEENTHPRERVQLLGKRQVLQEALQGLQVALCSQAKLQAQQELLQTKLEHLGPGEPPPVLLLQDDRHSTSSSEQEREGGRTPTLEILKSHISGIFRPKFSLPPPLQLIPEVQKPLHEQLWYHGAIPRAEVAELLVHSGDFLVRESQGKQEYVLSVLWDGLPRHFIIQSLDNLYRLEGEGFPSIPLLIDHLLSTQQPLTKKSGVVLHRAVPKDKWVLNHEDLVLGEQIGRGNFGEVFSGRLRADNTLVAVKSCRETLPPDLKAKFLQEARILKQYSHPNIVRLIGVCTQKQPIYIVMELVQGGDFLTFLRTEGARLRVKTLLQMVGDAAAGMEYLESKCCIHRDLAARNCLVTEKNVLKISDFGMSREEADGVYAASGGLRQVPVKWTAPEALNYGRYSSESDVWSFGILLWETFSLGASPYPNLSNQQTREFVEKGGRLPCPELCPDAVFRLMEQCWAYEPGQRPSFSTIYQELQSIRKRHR

[7] = molecular target: Hck (UniProt P08631); assay: as above
[8] = system: Fer (mouse); assay: as above
[9] = molecular target: FGFR3 (UniProt P22607); assay: as above
Chain of FGFR3 (P22607 whole entry, looked up): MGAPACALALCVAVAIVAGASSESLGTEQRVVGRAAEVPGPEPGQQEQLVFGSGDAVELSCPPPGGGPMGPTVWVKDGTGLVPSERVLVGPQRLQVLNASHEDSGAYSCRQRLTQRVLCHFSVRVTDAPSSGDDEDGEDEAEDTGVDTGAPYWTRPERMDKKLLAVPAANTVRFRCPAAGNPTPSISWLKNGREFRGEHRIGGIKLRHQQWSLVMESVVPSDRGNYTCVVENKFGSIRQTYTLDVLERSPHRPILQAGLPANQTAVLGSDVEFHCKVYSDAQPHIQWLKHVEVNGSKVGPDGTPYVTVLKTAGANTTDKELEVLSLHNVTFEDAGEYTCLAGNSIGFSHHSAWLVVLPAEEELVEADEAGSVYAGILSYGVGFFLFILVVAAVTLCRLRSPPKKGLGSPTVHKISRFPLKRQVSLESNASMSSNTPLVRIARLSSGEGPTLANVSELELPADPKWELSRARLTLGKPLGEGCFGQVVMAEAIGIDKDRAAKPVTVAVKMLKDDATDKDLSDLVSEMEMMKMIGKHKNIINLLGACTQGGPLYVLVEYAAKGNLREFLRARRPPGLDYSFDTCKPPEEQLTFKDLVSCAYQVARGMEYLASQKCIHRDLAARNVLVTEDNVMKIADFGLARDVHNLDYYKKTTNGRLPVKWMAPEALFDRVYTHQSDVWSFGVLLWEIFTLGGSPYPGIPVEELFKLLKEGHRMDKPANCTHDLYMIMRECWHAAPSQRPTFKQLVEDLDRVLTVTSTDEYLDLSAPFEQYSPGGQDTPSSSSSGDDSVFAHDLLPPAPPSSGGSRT

[10] = molecular target: MERTK (UniProt Q12866); assay: as above
[11] = molecular target: EPHB1 (UniProt P54762); assay: as above
Chain of EPHB1 (P54762 whole entry, looked up): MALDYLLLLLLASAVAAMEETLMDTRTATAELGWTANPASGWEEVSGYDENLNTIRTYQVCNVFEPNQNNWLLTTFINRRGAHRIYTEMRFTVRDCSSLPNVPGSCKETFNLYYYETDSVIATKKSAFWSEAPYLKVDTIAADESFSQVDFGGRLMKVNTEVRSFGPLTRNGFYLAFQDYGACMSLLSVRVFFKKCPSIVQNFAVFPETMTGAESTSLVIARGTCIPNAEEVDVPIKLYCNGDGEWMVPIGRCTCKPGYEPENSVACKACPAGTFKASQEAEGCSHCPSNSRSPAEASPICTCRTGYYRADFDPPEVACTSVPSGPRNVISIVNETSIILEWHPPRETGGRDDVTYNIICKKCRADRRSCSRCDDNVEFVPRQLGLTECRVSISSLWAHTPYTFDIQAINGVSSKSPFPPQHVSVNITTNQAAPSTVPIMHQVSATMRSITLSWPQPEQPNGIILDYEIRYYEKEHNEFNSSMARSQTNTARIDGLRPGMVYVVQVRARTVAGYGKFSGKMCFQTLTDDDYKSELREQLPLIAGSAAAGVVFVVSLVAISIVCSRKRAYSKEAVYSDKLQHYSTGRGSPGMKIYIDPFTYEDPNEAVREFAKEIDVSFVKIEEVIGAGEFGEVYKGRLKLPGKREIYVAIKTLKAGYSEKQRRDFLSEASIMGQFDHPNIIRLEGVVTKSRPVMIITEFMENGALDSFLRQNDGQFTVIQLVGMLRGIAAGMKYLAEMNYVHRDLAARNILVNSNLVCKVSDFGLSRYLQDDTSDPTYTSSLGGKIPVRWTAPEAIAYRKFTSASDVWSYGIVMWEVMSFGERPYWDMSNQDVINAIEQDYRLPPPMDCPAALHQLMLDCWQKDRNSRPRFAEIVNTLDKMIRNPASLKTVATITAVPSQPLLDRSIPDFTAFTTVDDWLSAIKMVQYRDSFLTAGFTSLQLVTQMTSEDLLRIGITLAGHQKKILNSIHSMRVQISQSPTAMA

[12] = molecular target: FGFR1 (UniProt P11362); assay: as above
Chain of FGFR1 (P11362 whole entry, looked up): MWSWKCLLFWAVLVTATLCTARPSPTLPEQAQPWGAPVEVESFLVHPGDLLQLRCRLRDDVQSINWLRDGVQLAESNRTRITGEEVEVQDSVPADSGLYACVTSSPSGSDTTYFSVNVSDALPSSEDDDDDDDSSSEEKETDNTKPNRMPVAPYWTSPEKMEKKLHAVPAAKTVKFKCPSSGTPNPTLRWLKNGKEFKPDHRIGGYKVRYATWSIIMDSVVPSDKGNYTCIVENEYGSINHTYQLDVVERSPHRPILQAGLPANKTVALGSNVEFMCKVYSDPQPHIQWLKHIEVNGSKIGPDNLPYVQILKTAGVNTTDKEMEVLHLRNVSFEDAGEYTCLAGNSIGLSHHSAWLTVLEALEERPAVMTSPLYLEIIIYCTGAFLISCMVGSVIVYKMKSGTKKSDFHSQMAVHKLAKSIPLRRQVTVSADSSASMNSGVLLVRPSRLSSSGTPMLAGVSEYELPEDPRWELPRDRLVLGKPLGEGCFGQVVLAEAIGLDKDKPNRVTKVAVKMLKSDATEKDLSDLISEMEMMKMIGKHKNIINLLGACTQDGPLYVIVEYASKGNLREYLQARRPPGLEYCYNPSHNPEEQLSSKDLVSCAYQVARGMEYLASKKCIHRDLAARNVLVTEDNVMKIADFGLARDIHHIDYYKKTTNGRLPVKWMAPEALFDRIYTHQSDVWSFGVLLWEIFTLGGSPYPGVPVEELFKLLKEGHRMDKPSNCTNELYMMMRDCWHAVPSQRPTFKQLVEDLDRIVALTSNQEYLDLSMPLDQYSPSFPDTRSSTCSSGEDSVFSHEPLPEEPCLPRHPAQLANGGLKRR

[13] = system: c-Src; assay: as above
[14] = molecular target: EPHB2 (UniProt P29323); assay: as above
[15] = molecular target: Fyn (UniProt P06241); assay: as above
Chain of Fyn (P06241 whole entry, looked up): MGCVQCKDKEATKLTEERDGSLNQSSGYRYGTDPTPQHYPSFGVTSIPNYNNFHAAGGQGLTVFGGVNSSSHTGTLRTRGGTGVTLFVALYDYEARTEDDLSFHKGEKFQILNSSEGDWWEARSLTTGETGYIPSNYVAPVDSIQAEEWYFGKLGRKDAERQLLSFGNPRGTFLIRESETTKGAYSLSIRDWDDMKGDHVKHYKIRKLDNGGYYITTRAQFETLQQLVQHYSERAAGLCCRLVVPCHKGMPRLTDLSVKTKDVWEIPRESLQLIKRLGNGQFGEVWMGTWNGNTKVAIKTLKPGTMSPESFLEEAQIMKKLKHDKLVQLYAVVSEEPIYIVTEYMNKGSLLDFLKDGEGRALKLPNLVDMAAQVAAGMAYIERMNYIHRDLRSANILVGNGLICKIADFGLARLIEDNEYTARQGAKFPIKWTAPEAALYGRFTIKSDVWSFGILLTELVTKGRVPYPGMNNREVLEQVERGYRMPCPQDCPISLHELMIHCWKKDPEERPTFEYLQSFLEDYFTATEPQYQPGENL

[16] = system: c-Abl (mouse); assay: as above
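Throughout, for SH2 binding enrichment of the phosphorylated peptide, bacterial display: peptide library displayed on the E. coli surface as eCPX fusions, selected cells deep-sequenced, score is each peptide's frequency after selection divided by its frequency in the input.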
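Throughout, for phosphorylation enrichment, bacterial display: 11-residue human phosphosite peptides and single-mutation variants displayed on the E. coli surface, counted by deep sequencing, each peptide's frequency after selection divided by its frequency in the unselected input library; frequency after pTyr selection over input frequency; kinase dosed for 20-30% of maximal phosphorylation in three min.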

Sequence	SH2 binding enrichment [1]	SH2 binding enrichment [2]	SH2 binding enrichment [3]	phosphorylation enrichment [4]	phosphorylation enrichment [5]	phosphorylation enrichment [6]	phosphorylation enrichment [7]	phosphorylation enrichment [8]	phosphorylation enrichment [9]	phosphorylation enrichment [10]	phosphorylation enrichment [11]	phosphorylation enrichment [12]	phosphorylation enrichment [13]	phosphorylation enrichment [14]	phosphorylation enrichment [15]	phosphorylation enrichment [16]
FTRNFYVRAVL [CYBA_Y88_YF]	0.448	0.581	0.658	1.36	1.54	1.58	0.565	0.689	1.11	0.503	0.831	0.635	0.554	0.713	0.529	1.57
QELRRYLKSSV [MICA_Y194_G198S]	0.426	0.732	0.502	0.543	0.457	0.6	0.653	0.292	0.483	0.213	0.322	0.44	0.298	0.349	0.36	0.349
GRDQPYSGAGD [TYRO3_Y828]	0.567	0.894	0.86	0.442	0.508	0.765	0.445	0.31	0.357	0.383	0.293	0.559	0.356	0.457	0.623	0.359
PNEAVYTKMMT [G6PD_Y401]	2	0.899	0.811	1	0.838	0.972	1.96	6.07	0.571	1.48	0.506	0.555	4.58	0.479	2.31	0.674
PGPQSYPTVTG [PAX5_Y299_I301T]	0.513	0.787	0.824	0.819	0.892	0.888	0.582	0.63	0.539	0.707	0.79	0.811	0.594	0.725	0.828	1.06
QDEHGYISLCF [HSPB1_Y133_R136L]	0.485	0.637	0.579	2.22	3.37	3.71	1.17	1.08	2.09	1.36	1.56	1.48	1.16	1.22	1.05	2.42
MENFIYESMRF [CYP19A1_Y361_YF]	0.562	0.772	0.677	1.3	0.626	5.1	7.67	14.1	0.577	3.74	4.14	0.551	6.6	2.63	8.61	2.71
QTLEAYIRWNK [SPAST_Y604]	0.919	1.26	1.61	1.2	1.09	1.44	0.472	0.62	0.935	0.45	0.703	0.615	0.488	0.588	0.452	0.913
NPQKSYLIRLF [WAS_Y83_F84L_YF]	0.672	1.03	0.822	0.768	0.681	0.957	0.407	0.448	0.696	0.413	0.462	0.439	0.38	0.484	0.398	0.523
IINENYDYLKV [NUP98_Y1664_G1669V]	0.595	0.86	0.687	1.38	0.956	1.1	1.89	2.24	1.16	0.919	1.05	1.54	0.625	1.31	0.538	0.664
SNPAYYVLEGV [INPPL1_Y987_N982S]	3.28	0.891	1.19	1	4	0.921	0.917	0.515	12.1	7.46	0.769	15.1	1.21	0.609	1.25	0.538
EADRKYEEVAR [TPM3_Y163]	18	1.08	0.794	1.29	1.19	1.46	0.663	0.712	0.895	0.598	0.764	0.637	0.625	0.742	0.58	1.08
PSFSEYASVQV [SIRPA_Y496]	0.705	0.997	0.952	1.11	1.02	0.801	1.93	3.49	1.05	0.474	6.25	1.05	2.35	8.42	2.49	4.02
ATARPYSPFII [LRP5_Y1528_R1529S_YF]	0.715	1.04	0.75	0.627	0.508	0.735	0.594	9.77	0.618	0.552	0.403	0.409	0.633	0.474	0.504	0.467
LHSEAYLKYNE [PBRM1_Y1610_I1614N]	0.497	0.955	0.862	0.751	0.744	0.757	0.395	0.311	0.585	0.397	0.393	0.409	0.586	0.45	0.35	1.25
KKHFSYAWPFY [BRDT_Y291]	1.52	1.73	1.46	1	0.647	0.965	0.425	0.385	0.564	1.22	0.622	0.495	0.375	0.428	0.456	0.493
VDGSLYKTHPQ [HK1_Y417]	0.465	0.765	0.596	0.472	0.409	0.556	0.365	0.421	0.419	0.378	0.436	0.338	0.385	0.389	0.44	0.425
RHLQEYQDLLN [GFAP_Y349]	1.13	1.71	1.27	0.737	0.565	0.807	0.468	0.389	0.477	0.392	0.513	0.418	0.399	0.45	0.616	0.417
SGDVQYRSSVR [FREM2_Y2158_T2153S]	0.514	0.812	0.883	0.442	0.396	0.608	0.378	0.377	0.432	0.348	0.472	0.378	0.364	0.332	0.375	0.481
DNEALYDTCFR [TUBB2B_Y208_I210T]	0.56	0.725	0.456	2.34	1.23	1.49	6.09	8.38	0.888	6.63	2.85	0.61	5.2	2.71	6.81	2.25
EQPNPYMVLDI [ROCK2_Y1197_S1194P]	0.732	0.869	0.785	1.15	1.06	1.07	1.23	2.87	1.09	2.06	0.653	1.13	3.03	0.571	2.46	0.575
MALDRYVAICK [OR2B11_Y127]	1.35	0.856	0.97	0.762	0.665	0.838	0.51	0.499	0.604	0.411	0.581	0.508	0.454	0.575	0.464	0.863
KLFIEYPTGSG [IRF2BPL_Y423]	0.505	0.82	1	0.636	0.653	0.775	0.431	0.301	0.486	0.374	0.478	0.412	0.402	0.565	0.444	0.521
RELGEYPLAEY [ALDH1A3_Y492_A493P]	2.46	0.795	0.291	0.982	1.97	1.41	0.505	0.593	0.685	0.516	0.484	0.688	0.492	0.495	0.582	1.17
NHFKIYNPCAE [PTEN_Y68_L70P_YF]	0.752	0.901	0.798	0.816	0.807	0.996	0.56	0.442	0.676	0.452	0.494	0.458	0.474	0.518	0.564	0.809
CTTIHYIYMCN [TP53_Y234_N235I]	0.716	0.894	1.35	0.728	0.907	0.989	0.322	0.478	0.548	0.281	0.459	0.404	0.263	0.461	0.254	0.742
DDSNPYINVKL [MTHFD1_Y52_L51P]	0.701	1.32	0.811	1.45	1.16	1.66	0.606	1.2	0.884	0.526	0.551	0.631	0.59	0.614	0.645	0.846
NIEPIYLNMLL [ATR_Y317_V316I]	0.424	0.705	0.63	1.85	1.42	3.2	6.92	13.3	7.79	6.85	13.8	10.7	6.6	14.5	8.37	15.1
LSSNLYYRWLT [CNGA3_Y168_P163L]	0.795	1.29	1.27	6.06	13.4	3.38	15.2	8.47	17.8	20.4	7.53	21.5	6.55	8.33	6.81	12.6
